# Data reported in EP0730609B1 (SMITHKLINE BEECHAM CORPORATION, dated 2005).
# Experiments:
# [1] = biological target: T1, recombinant human IL4 (E. coli, non-glycosylated) (human, UniProt P05112 25-153); test: titration microcalorimetry, measured at 60°C and calculated for 25°C, pH 7.4, 150 mM NaCl
# T1 construct: also called hIL4; hIL-4
# T1 sequence (looked up): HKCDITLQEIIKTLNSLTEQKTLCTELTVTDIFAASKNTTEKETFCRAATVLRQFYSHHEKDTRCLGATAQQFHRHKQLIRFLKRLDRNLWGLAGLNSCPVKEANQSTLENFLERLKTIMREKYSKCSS
# [2] = biological target: T1, recombinant human IL4 (E. coli, …); test: titration microcalorimetry, 25°C, pH 7.4, 150 mM NaCl
# [3] = biological target: T1, recombinant human IL4 (E. coli, …); test: cell-based or functional assay
binder,measurement,setting,value
"humanized 3B9 (IgG1) (antibody, V domains shown) VH: QVTLRESGPALVKPTQTLTLTCTFSGFSLSTSGMGVSWIRQPPGKGLEWLAHIYWDDDKRYNPSLKSRLTISKDTSRNQVVLTMTNMDPVDTATYYCARRETVFYWYFDVWGRGTPVTVSS VL: IVMTQSPDSLAVSLGERATINCKASQSVDYDGDSYMNWYQQKPGQPPKLLIYAASNLESGVPDRFSGSGSGTDFTLTISSLQAEDVAVYYCQQSNEDPPRFGGGTKVEIKR",Kd,[1],0.011 nM
same,-TΔS,[2],8.2 kcal/mol IL4
same,ΔG,[2],-13.6 kcal/mol IL4
same,ΔH,[2],-21.8 kcal/mol IL4
same,"B cell (inhibition of IL4-stimulated B lymphocyte proliferation), IC50",[3],0.047 nM
same,"CD23 induction (inhibition of IL4-induced CD23 expression on B lymphocytes), IC50",[3],0.333 nM
same,"IgE synthesis (inhibition of IL4-driven IgE secretion), IC50",[3],0.054 nM
same,"T cell (inhibition of IL4-stimulated T lymphocyte proliferation), IC50",[3],0.044 nM
